Experimental data: the DeepSol protein solubility set

assay: soluble on expression in E. coli; label from the status in PepcDB or PDB records

| Sequence | soluble on expression in E. coli |
| --- | --- |
| MSLKKSDATGGEVASAEPIAKIPAPAGKAWTETFSVTPDGGYLLGNPDAPIKLIEFGALSCSHCAEFSEKGFPKLRDEYIASGRVSYELRLFLLNALDMPAVLLATCGAPEAVIPLSEQFWAWQPNMFSNLQKDEAAFQQISNLPAEKRFAGIAQLGGLSEFFASRGIAAAQGATCLADTAKATRLATVNDQWGKEYDITGTPTFFLNGSKTGVATWAELEPMLQKAGAREGHHHHHH | soluble |
| MSLKLDSKGPVLFKQKRVGINKTHFHILKFRTMRIDTPKDTPTHLLKNPDQYITKMGKFLRKTSLDELPQIWNIFVGHMSIIGPRPALWNQYDLIVERDKYGANDVPPGLTGWAQINGRDELPIEVKAKLDGEYVQNIGFWMDVKCFVGTIWSVLRSDGVVEGGTGSAKKEIASTKRREGHHHHHH | soluble |
| MSLKLIGMLDSPYVRRVAISLKSLGLPFEHHSLSVFSTFEQFKAINPVVKAPTLVCEGGEVLMDSSLIIDYLETLAGPQRSLMPTALPQRLRELRLVGLALAACEKSVQIVYERNLRPAEKQHGPWLERVGGQLQAAYGELEQELQKQPLPRDGSLGQAGISLAVAWSFSQMMVADQFNPGQFPAVRGFAEYAEQLPVFLATPATEGHHHHHH | soluble |
| MSLKLNWDKAIDKAIKRYGLRVEPQLISYFSKAGVSYPPKEIALLAFKSERKVELWAKNPSQEWTHIHDYPLTGFSGRLGPKLRENDKQIPEGIYKLVNFNPFSSMHLSMMINYPNSFDRQKGYMDGRKELGNNIFIHGKNLSVGCLAVGDLAIDQLFILARRVGLKNIQVIIAPNDLRYQKPSTSTFAQPRWLPELYKQITESLKPFKKTKFTAEGHHHHHH | soluble |
| MSLKLRGHHLICLQFFRGEGYSGEFVENVKKIMERLESGETVEVVAGVDDICVACPYNRGYCGKDETSEERVREMDKAAVRLLGVSEKTTWREVAERIEKVLNEWRVFCEDCDWKEVCYGEGHHHHHH | soluble |
| MSLKLVGIIGSIADESYNRKLMLYIASHFKETIDIEILDIRDVPMFRVGMEMGPAVEYLNKKISAADGVIIATPEHNHTTTAALKSVIEWLSSSVHPFADKPVLLVGASYFEQGSGRAQLDLRQILESPGVNALVMPKDEFLLGNVKSAFDENGNLKEARTVGFLESVMGNFLKWIKVLKAMKKNNDVKGDWESEDLTASQEIDTTVKGVDMKAEDWVEQAAAKTNAVEGDTYVKLDRGLLTVNQLNWFLNTMPVELTFADDNNQFIYYNRMDENPKDMLAPRQPKQVGDPLESVHPERALKGVKHVVHTLRTGETDLVSMPVPFINKVNEKHVMHYYKAMHDEDGRYRGINEWVVDIWPVVESYLKMTGQKLVADENAKVDEGHHHHHH | soluble |
| MSLKPLIKIETERTSLIYQVADNGRLYQKYLGKKLNHDSDIQYLPQGTEAYLTHGMEDYFEPAIHIRHNDNNSSLLLKYVDHSSNAIGNGVNETVITLKDDKYPVTVKLHYVAYGKENIIRTFTEISHEEKKPVILCKYASSMLHLNSSKYFLTEFSGDWAHEANVTERELAFGKKVIDTKLGARANMFVSPFFQLALDNPSQENAGEVLVGTIGWTGNFRFTFEVDNKNELRIISGINPYDSEYSLPAREVFRTPDFYFTYSTQGKGEASRNFHDWARNHQVKNGNDTRMTLLNNWESTYFDFDENKLIGLMDEATKLGVDMFLLDDGWFANKYPRSSDHQGLGDWEETADKLPNGVGRLVEEAQKKGIKFGIWIEPEMVNPKSELYEKHKDWVIHLPNRDEYYFRNQMVLDLSNPKVQDHVFGVVDNLMTKYPGIAFFKWDCNSPITNIYSVYLKDKQSHLYVDYVRGLYKVLDRIKAKYPNLPMMLCAGGGGRSDYEALKYFTEFWPSDNTDPIERLFIQWGYSQIFPSKTLCAHVTTWNRGTSIKFRTDVAMMCKLGFDIKLEDMNQNEHLYCDQAVKNYNRLKPVILEGDLYRLVSPYGSNHTSSMFVGKDKKTAAVFAFDIHPRYAEKTLPVRLQGLNADKKYRVKEINMMPGSGSSLKGNNQVFSGEYLMNVGLDLFTTQQLNSRLIEITEEGHHHHHH | soluble |
| MSLKPNYLEERICLNVLANSVENAQACYEAAEGHVVLGVLSKNYETDEAAIDDMKKYQAATNNALSVGLGAGDPNQSQMVARLSEVLQPQHVNQVFTGVGASRALLRQDETVINGLVSPTGKVGYVNIATGPLSSGAPAAEVPIETAIKLLKDMGGSSIKYFPMKGLAHKEEYQAVAAACAKYDFYLEPTGGIDLENFEEIVQIAVDAGVKKIIPHVYSSIIDQETGDTRTEDVKTLLTMMKKTLNK | not soluble |
| MSLKQAIFVMMDQYADWEGAHLSSQLNQMTDWTVKTASNQPEVTSIGGWTTRVDYQISELNPEMTLLVLIGGNAWQHDDPRLTALIQQCLQRKVIVGAICGAVDYLARNGLLTGYRHTGNAQFSWQSFPKYQNPTDFELQQVVVDRQLVTANGTAALSFTSAVLKASGQLTIAAKQALDLQQLGYYDNTETHLNEGHHHHHH | not soluble |
| MSLKQLFLIIGAPGSGKTTDAELIAKNNSETIAHFSTGDLLRAESAKKTERGLLIEKFTSQGELVPLEIVVETILSAIKSSGKGIILIDGYPRSVEQMQALDKELNAQNEVILKSVIEVEVSENTAKERVLGRSRGADDNEKVFHNRMRVFLDPLGEIQNFYKNKKVYKAIDGERSIEEIVGEMQEYILSFGNEGHHHHHH | soluble |
| MSLKRALAALVLLGAVAQAQTGHAGHSVGSVSTGVSMPAMSKQMVSALGPLRGRAFDIKFAQLMMDHHQMALDMAGQELSSGKNAQVRAAAKKVVAAQQQEIALMTGWLRKWTGKVYVPQTLPMVLTGTVNTDRWFLTEMLPHHQGAVDMSKLAAGRSGSSEVKKLALSIIRSQTAEMNTYRQLLKTVKEGHHHHHH | soluble |
| MSLKTALDIIEHAEEHLIEKIAENMHTFGMPSTVGRVLGIIYMNRKPMTLSELSEATGMSKTRMSQVVREMIDANIAEKVFEKGVRKDLYDVEQDYYQTFISLFAANWTKVVSKNKVLYKKLNRELSDLLQRDGLTPEAEEKVNQLLNELKEWLHYYDWLSRLIEFFESEEVFRYVPKTKECSSLKEGGSHHHHHH | soluble |
| MSLKTERILLPVDGSESSYRAAYCAAQAAQLCGAEVLLLHCVDQTEQNGEAPLVDTTLAEDTTTNRHPKQADALGMATANDLIGPVRDILEDHGIRYMERIVEGEPATCIPRVAQNTRCGLIVMGRSGKTPSGRLPVGSVTGRVVGAAHCPVIVAEGHHHHHH | soluble |
| MSLKTLLFDVDDTLLDFKLAEKKALHALFEEENVPFTSEVESTYHRINQGLWRSFEEGKITKDVLLDTRFGLLFDAFNREVDSVKMGENYREYLSQGHDLLGNSQRILEKLAPHYDLYIVTNGVAKTQYRRLEDSKLMPYFKDIFVSEEVGYQKPMKEYFDFVFERIPNFSREKTMIIGDSLHSDIQGGQQAKIQTVWLNPTSAPATPTIQPNYTIQQLDELLPILGHEGHHHHHH | soluble |
| MSLKVKAINLYTYKEPFKSPISTPKVKLTHRESLFTEIVTYSGETYYGECNAFLTNWYDKETILTVVNRLRQWIPQVLHKDMTSFDSWLPYLNQMNDAPAARSMVVMAVYQMYNDLHDFEVQYGATVSGLTNSQIETLLETRPKRIKLKWSTSLIKDLETIRLLNFDCDIAIDANESLTKPSFLQLANVNTSDIIYIEEPFKILEDLNDIDMSIFPRIAIDEKALSIEKIQSIIQQYPIQVVVLKPFRLGGIDRMLNAMKILKEKNIRFVVGGMYEFGLSRYFTAMLAKEGSYPGDITPHGYYFSNDIVETSGILKGGMIYFTPPKVKRSLLNKVEGHHHHHH | not soluble |
| MSLKVTIKDIATICGVSAGTVDRALNNRTGISEKTREKILKTAKELNYRPDYTARSLVMGKTMTIGVVLFDLYNRSFAQLLNAIELKARELGYFIYITLSDKNPENELNCIEHLVNRKVDGIILFTVNKGEQFEANLSKWGIPIITIFNYVSEKWEYIGIQERQAMKEAVDYIASKRYKKFIYISPPLTYLGKNNIYTQEERLNGFYDGLKSNGITSKPLIIKNSEYIKELDNITFSQDGKVAIVCATDLYALEVMNYLKEKGFNIPEQVGVMGFDDIDMLKYITPRLTTVKYPIDEIGRRAIESMVNKINHGHFISTPLLNYQIIKGESIEGHHHHHH | soluble |
| MSLKVWITGAGGMMGSHLAEMLLAAGHDVYATYCRPTIDPSDLQFNGAEVDITDWCSVYDSIATFRPDAVFHLAAQSYPAVSWARPVETLTTNMVGTAIVFEALRRVRPHAKIIVAGSSAEYGFVDPSEVPINERRELRPLHPYGVSKAATDMLAYQYHKSYGMHTVVARIFNCTGPRKVGDALSDFVRRCTWLEHHPEQSAIRVGNLKTKRTIVDVRDLNRALMLMLDKGEAGADYNVGGSIAYEMGDVLKQVIAACKRDDIVPEVDPALLRPTDEKIIYGDCSKLAAITGWQQEICLTQTIADMFDYWRSKSESAEGHHHHHH | soluble |
| MSLKYNDNFQTILRHGVEKQVALLDADIFMENGQDDVELQMRQFRNLVNSKVDAIVVAMVNGKSAAEMMRLANEAKVPLVFVNRNPEPAKWPALTAFVGSDELESGTLQMEELARRAGYKGNVVILVGDPSNKSSVMRTEDVEKVVAKYPNMKVVQKKIGNWERSQAATIVIDWVKQGVDFSIVAANNDEMAIGAIMGLEKAGKNARDYLVGGIDGTPDGLKLMAEGKMAVSVFQDAVGQANGAVDAALSMARGETLASPVIWVPFKLITPENRQQFEEGHHHHHH | soluble |
| MSLKYYIGLACTGHENALAIVNPDGEIVFAEATERFLQNKRAVNTPPDDPLRIPRLLKQYCSDCDAIVVAKTWSREAPQKMRTDAAHILKALAGTDARTDRDWVARVAFHAGLGDKLIEPNYRLAGNGIERYCSLQGLEHSVRSYEHHLTHAAYACHTSPFDDAVCAVFDGYGEGVHSSYFHYRNGKVEPIRRARSAKGQYGSLASLGLYYGYTICALLGLDIVNGEEWKVMGLAPYGQLNPAFLDVLRRHIYVDGLDLVMDGNAAGTYRELQAFARRPGQSYESVADIAYTAQHYFSELMLEMLAGLRQLGLSDRLVLTGGCALNSTFNGEVIPRSGFAQLYVPPAPSDDGNAVGAALLAYAEDGGAMSRPAFHSPYLGSAIDDRELAPFLKNGAMLGQVPVTPGELCDYVAQELADGKVIGWIQGSAEFGPRSLGNRSILADPRRASMKERINAIVKFREGFRPFAPSILDEFGDRYFEDYSATPYMEKTLKIREAYREAIPAVCHVDHTGRLQTVRRDWNPRFHALLSAFHARTGTPVLLNTSLNVMGKPIVHSAADAFTVFLSTGLDLLVINDHVFSKREGHHHHHH | soluble |
| MSLLASLGGLVSCAAKVHFKEEGNAMNELIANHDFDFRQLVTAAEGQPVTDTFQIAKAFGKRHADVLRALKNCHCSEDFRRAHFCVSEKINNLGIFDKKQIYYRMDFSGFVMLVMGFNGAKADAVKEAYINAFNWMSAELRKYSESYEAERNAIMLEYMKEKDVASMSGRLLNRWGKIKKPQLLARIGRLEQHGQTVIPGLTNEGHHHHHH | not soluble |
| MSLLDFEKPLFEIRNKIESLKESQDKNDVDLQEEIDMLEASLERETKKIYTNLKPWDRVQIARLQERPTTLDYIPYIFDSFMELHGDRNFRDDPAMIGGIGFLNGRAVTVIGQQRGKDTKDNIYRNFGMAHPEGYRKALRLMKQAEKFNRPIFTFIDTKGAYPGKAAEERGQSESIATNLIEMASLKVPVIAIVIGEGGSGGALGIGIANKVLMLENSTYSVISPEGAAALLWKDSNLAKIAAETMKITAHDIKQLGIIDDVISEPLGGAHKDVEQQALAIKSAFVAQLDSLESLSRDEIANDRFEKFRNIGSYIEEGHHHHHH | not soluble |
| MSLLDIERVREQQRPLPISKIRAQQSHTSFQGVFEEIAGHKSEKTVYAILETLEKDGERLAKHRTAAELHAFKRSVRQCVSHLLESLKVETASSAASGQVRQYKLVKEIDKGLVELTNAVFDQSKSELDLLNKIGELQGLIIQLYLEGHHHHHH | soluble |
